Data taken from patent US20250263778A1 (Hoffmann-La Roche, published 2025).
Numbering of substitutions follows the chain as printed. Like-named read-outs stand apart in the source and are kept apart here.

B1: BCC.763 (antibody, V domains shown)
VH: CQSVEESGGRLVTPGTPLTLTCTASGFSLSSYNMNWVRQAPGKGLEWIGYINKGGSAYYASWAKGRFTISRTSTTVDLKMTSPTTEDTATYFCVRSGGGGNLNLWGQGTLVTVSS
VL: AAVLTQTPSPVSAAVGGTVTISCQSSPNILGNYLSWFQQKPGQPPKLLIYYTSTLASGVPSRFKGSGSGTQFTLTISDVQCDDAATYYCLGVYRSDSDNVFGGGTEVVVK
notes: Rabbit IgG, kappa; also called antibody 763
B2: BCC.763-2 (antibody, V domains shown)
VH: B1 VH with E46A, R71K
VL: B1 VL
notes: recombinant rabbit IgG, kappa; Positions are Wolfguy indices; tie inferred; also called VH variant 2103:7194:16368 1:N:0:1
B3: BCC.763-4 (antibody, V domains shown)
VH: B1 VH with Y59D, S61N, T85P
VL: B1 VL
notes: recombinant rabbit IgG, kappa; Positions are Wolfguy indices; tie inferred; copies: 2 + 2
B4: BCC.763-1 (antibody, V domains shown)
VH: B1 VH with T85P
VL: B1 VL
notes: recombinant rabbit IgG, kappa; Positions are Wolfguy indices, not positions on the entry; tie inferred

Assays:
[1] = biological target: T1, murine LRP8, biotinylated (murine, UniProt Q924X6 29-858, limits assumed, biotinylated); experiment: ELISA, biotinylated murine LRP8
T1 construct: also called mu-antigen; murine antigen
T1 sequence (Q924X6 29-858 limits assumed): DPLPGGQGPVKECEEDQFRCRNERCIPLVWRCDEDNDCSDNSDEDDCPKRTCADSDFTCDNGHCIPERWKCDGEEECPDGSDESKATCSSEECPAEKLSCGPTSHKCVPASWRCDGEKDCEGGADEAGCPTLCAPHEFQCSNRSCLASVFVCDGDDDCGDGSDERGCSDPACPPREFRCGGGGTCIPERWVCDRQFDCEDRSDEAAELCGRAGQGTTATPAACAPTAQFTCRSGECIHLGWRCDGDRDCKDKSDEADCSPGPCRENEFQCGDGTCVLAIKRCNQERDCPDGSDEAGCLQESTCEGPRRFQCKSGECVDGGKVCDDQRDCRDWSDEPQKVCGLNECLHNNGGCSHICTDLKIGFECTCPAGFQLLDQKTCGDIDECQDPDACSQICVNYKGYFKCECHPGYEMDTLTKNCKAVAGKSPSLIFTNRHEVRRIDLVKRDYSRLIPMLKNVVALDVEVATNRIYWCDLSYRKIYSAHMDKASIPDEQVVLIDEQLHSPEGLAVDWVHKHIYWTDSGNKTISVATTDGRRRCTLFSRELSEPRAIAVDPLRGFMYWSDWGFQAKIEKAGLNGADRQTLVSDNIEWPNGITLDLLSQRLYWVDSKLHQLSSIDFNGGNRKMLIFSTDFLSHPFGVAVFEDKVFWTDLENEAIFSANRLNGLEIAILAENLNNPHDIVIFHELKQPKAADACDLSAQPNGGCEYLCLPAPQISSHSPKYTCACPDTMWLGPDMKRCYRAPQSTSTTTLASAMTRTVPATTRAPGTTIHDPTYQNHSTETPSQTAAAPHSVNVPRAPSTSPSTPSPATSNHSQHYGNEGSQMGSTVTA

[2] = biological target: T2, human LRP8 (Low-density lipoprotein receptor-related protein 8), biotinylated (human, UniProt Q14114 33-826, limits assumed, biotinylated); experiment: ELISA, biotinylated human LRP8
T2 construct: also called hu-antigen; human antigen
T2 sequence (Q14114 33-826 limits assumed): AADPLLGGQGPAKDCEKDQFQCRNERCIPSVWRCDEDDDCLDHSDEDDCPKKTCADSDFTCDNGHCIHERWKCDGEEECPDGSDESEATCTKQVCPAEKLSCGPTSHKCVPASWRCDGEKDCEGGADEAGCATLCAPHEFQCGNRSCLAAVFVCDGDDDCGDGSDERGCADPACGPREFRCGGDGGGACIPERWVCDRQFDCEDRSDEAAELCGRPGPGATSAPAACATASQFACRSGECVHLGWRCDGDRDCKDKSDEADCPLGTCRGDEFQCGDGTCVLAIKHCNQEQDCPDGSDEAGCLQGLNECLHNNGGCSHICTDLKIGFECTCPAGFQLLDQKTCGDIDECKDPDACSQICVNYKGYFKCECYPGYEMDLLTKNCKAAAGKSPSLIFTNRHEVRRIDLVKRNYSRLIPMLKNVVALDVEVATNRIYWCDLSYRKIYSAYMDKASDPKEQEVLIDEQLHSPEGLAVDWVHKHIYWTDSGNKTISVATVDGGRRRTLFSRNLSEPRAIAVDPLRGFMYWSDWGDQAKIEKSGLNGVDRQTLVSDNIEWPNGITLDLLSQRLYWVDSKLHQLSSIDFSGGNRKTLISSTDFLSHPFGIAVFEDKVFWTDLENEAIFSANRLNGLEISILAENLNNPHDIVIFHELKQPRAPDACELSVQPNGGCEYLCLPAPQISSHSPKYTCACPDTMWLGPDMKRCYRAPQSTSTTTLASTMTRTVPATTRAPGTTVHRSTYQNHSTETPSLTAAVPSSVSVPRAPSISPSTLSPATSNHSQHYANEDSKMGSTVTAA

[3] = biological target: T1, murine LRP8, biotinylated; experiment: ELISA, biotinylated murine LRP8; remark: listed apart in the source
[4] = biological target: T2, human LRP8 (Low-density lipoprotein …); experiment: ELISA, biotinylated human LRP8; remark: listed apart in the source
Experimental: The antigen, biotinylated human LRP8, was incubated with 5 μL sample containing the anti-LRP8 antibody at a concentration of 250 ng/mL in a total volume of 25 μL in PBS, 0.5% BSA and 0.05% Tween in a 384 w microtiterplate (Maxisorb (with Streptavidin, Nunc). After 1.5 hrs. incubation at 25° C. unbound antibody was removed by washing 6 times with 90 μL PBS (dispense and aspiration). The antigen-antibody complex was detected by an anti-rabbit antibody conjugated to POD (ECL anti-rabbit IgG-POD, Cat. No. NA9340V; POD=peroxidase). 20-30 min after adding 35 μL POD-substrate 3,3′,5,5′-tetramethyl benzidine (TMB; Piercenet, Cat. No. 34021) the optical density was determined at 370 nm. The EC₅₀ value was calculated with a four parameter logistic model using GraphPad Prism 6.0 software.

Binder | EC50 [1] | EC50 [2] | EC50 [3] | EC50 [4]
B1 | < 0.02 µg/mL | < 0.02 µg/mL | < 0.02 µg/mL | < 0.02 µg/mL
B2 |  | < 0.02 µg/mL | < 0.02 µg/mL | 
B3 |  | < 0.05 µg/mL | < 0.02 µg/mL | 
B4 |  | < 0.02 µg/mL | < 0.02 µg/mL | 
